The record followed here is publication PMC9302720.

For orientation: Kd means the free concentration of one partner at which half of the binding sites on the other are occupied at equilibrium, for simple one-to-one binding. Higher therefore signals weaker binding. What is called koff is a measure of how fast the partners let go of each other. Low values mean a long-lived complex, high ones a short-lived complex. Usually kon stands for a measure of how fast the partners come together. Low readings indicate slow association, high ones fast association.

This assay concerns the target SARS-CoV-2 protein S ectodomain, Wuhan-Hu-1 variant (SARS-CoV-2 | not stated) (UniProt P0DTC2). In words: BLI.

Substance “N-terminal peptidase domain of human ACE2 (domain or fragment)” registered a dissociation constant Kd of 79.3 nM, an off-rate constant (koff) of 0.0162 s⁻¹ and a kon of 210000 M⁻¹ s⁻¹.
